Laboratory results reported in patent US20190185561A1 (Seagen, published 2019).

Biological target: T1, human CD47 expressed on the cell surface (human, UniProt Q08722 19-323)
T1 construct: whole, on cells; also called CD47 on SW780, human red blood cells, HT1080, HCT116, Raji, L450cy and patient blood cells
Assay: saturation binding, flow cytometry, HCT116 cells; HCT116 cells

Kd: 1780 nM
B1: Ab47 bearing the A2B1 coiled coil masking domain (antibody)
VH: GASTSVDELQAEVDQLQDENYALKTKVAQLRKKVEKLSEGGGGGPLGVRGGGGSEVQLVESGGGLVQPGGSLRLSCAASGFTFSGYGMSWVRQAPGKGLEWVATITSGGTYTYYPDSVKGRFTISRDNAKNSLYLQMNSLRAEDTAVYYCARSLAGNAMDYWGQGTLVTVSS
VL: GASTTVAQLRERVKTLRAQNYELESEVQRLREQVAQLASGGGGGPLGVRGGGGSEIVLTQSPATLSLSPGERATLSCRASQTISDYLHWYQQKPGQAPRLLIKFASQSISGIPARFSGSGSGTDFTLTISSLEPEDFAVYYCQNGHGFPRTFGQGTKVEIKR
notes: IgG1
